# Experimental data taken from the DeepSol protein solubility set.
# Test: soluble on expression in E. coli; label from the status in PepcDB or PDB records
row,Sequence,soluble on expression in E. coli
1,MKKILFDVDGVFLSEERCFDVSALTVYELLMDKCYLGLHSHIDWETLTDNDIQDIRNRIFQKDKILNKLKSLGLNSNWDMLFIVFSIHLIDILKKLSHDEIEAFMYQDEPVELKLQNISTNLADCFNLNEQLPLQFLDNVKVGKNNIYAALEEFATTELHVSDATLFSLKGALWTLAQEVYQEWYLGSKLYEDVEKKIARTTFKTGYIYQEIILRPVDEVKVLLNDLKGAGFELGIATGRPYTETVVPFENLGLLPYFEADFIATASDVLEAENMYPQARPLGKPNPFSYIAALYGNNRDKYESYINKQDNIVNKDDVFIVGDSLADLLSAQKIGATFIGTLTGLKGKDAAGELEAHHADYVINHLGELRGVLDNLLEHHHHHH,soluble
2,MKKILILLTLCAFAFGASECDRKIDRINKEISFSKAHNDTARTLSLELALKQVQNDCAKDPMFYDKKLEAKKLKEQEVEKIEKELDALKEQKDYMSKAEYKAKKEALKEQKEKIKKLEHHHHHH,not soluble
3,MKKINKGKSLSRFQLVSTLSVLGAMGLAGNVHAAEAFAADSPWMTGDWNGKRTELLDKGYDFSLEYVSEMASNLKGGSNDDTTGRYSDQFALGMKVDLQKVLGWQDAEFKLAITERSGRNISNDRIGDPRAGTLSSSQEVWGRGQTWRLTQMWVKQKYFDGALDVKAGRFGPGEDFNSFPCDFQNLSFCGSQVGNYVNTWYNWPISQWALRVKYNITPEVYAQVGVYEQNPSNLETGNGFKLSGSGTKGMILPVELVWTPTVNSLPGEYRVGYYKSTPNADDVYEDVNGQPQAATGAAFKSHDSKHGWWVVAQQQLTSHNGDASRGLSIFANATVHDKETNFVDNYQQIGLTYKGPFNSRPKDDIGVGIARIHVNDDVQDRVRLANQISGINDFDNPGYLPVQSTEYNSEIYYGFHVTNWLTVRPNLQFIKHPGGVDQVDDAIVAGIKIQSKF,not soluble
4,MKKKGKFLLFTMDEFDQWLLETRFSRSVKLVQNHHTYLPGYVQFTGSNHFGLLEGMEHFHMAERGFSEIAQNLTSFPDGTVAVCRSIDKVPCGIKGANQEGICLENLGNFDAGGDTMTPAHRDAIVKINALLCREFNLTPNTDSIVYHHWYDLNSGKRTGGSGTTKTCPGTAFFGGNSMDAAAATFIPLVAQTLAQLTGGTAPSAPVPLKSGEVVASSLNVRAGRGTEFPVVKGLKRGVRVNVFETADGWVRIHPTEQQWVAERYLRYAAAALEHHHHHH,soluble
5,MKKKILKVATALTIMGGVAFSAEGATAKAELAAKPQQASQAIFKDVPAGHWSYEAIQTLAEQEIMLGYGNGVFGFGHNVTREQVAALIYRALDLDEEFGEDEELESPYNDIVDDNSTMFPFEVLAVTELGIFTGDEKGNFRPKDTLTRAEMAQVLTRAFGLQVQGLAGFKDVPKGHWAENAINAVGSNGISVGDGNGNFAPNMKVTREQYAQFLFRAL,not soluble
6,MKKKSNLTLFMKQLIRSLKEEERFSTAHIYQSTLNAFMLFCKTDAIRFNQMERSRLKQFENHLRNKGCTWNTVSTYMRTLRSIYNKAVDDGLAEEKPRLFRHVYTGVKANTKRALDAKDMSKLLSASLPRPLPQSMKESRAWITLMFLLRGMPFVDLAHLRKTDLQDSVISYRRHKTGALLTVEIPPAAMNLIKRYQNTDSASPYLLPILSGNRKSEEEYAEYQHALRKLNYDLKQLAVYCGIKLNVSSYTSRHTWATLAKYCHFSEQLICDALGHSSTKVTETYLKSFKNDELDRANKVIINHINISI,not soluble
7,MKKLLLPLVLAGVLLATLLVSQSSSSPSLRVAYVDVEKATESYYKWQDLNEKYKRDYSFYQNKLKEMEDELKKMQEEGRSQEEIQAKQKEILSKKAEYENLLKTEYQQKIQEVMKEVVSKIQEYASVMGYDLVIAKQMVLYGKPSYDITDQVIAYINQK,not soluble
8,MKKLVHLSDFHYDGLRLSEEMLAEAIAVSNQVQPDLVLLTGDYVTTTPQPIHQLAKRLQKLQSHAGIYAILGNHDLYQKNSKTEITQALTKAGIQVLWNEIAYPLGEELPIVGIVDYYYREFNPQLLFNQLEPTTPRIVLCHNPDTAAMLQGWRVDLQLSGHTHGGLEHHHHHH,not soluble
9,MKKMHVESEFAPLRSVVLAQSQFCLPDKFDEADTTFLTEENARLTQNNEGRDLADFAPEQQVRWEKEKEVMQGVLESYGVEVFRPRLLTTYEKEHGKELGVGYSNFFSRDPFFTIGNLLIEGNLRFQHRRQEILPIRPIIQQWTQEAEGYYFAAPQPDISEGALSEAGPFIEGGDVLVLGKTIFVGYSGLASNLAGIQWLANMIGHFGYEVVPVRLHPHILHLDCALSLLREGLMIVCEEAFLDGLPAQLANWEKIHVTLQEAAYLVTNGLPLNEETYITDQSFTTLIPQIEAKGIKVEAIDYHVSRMLGGSFRCTTQALIRE,not soluble
10,MKKNDLSALQENCFCFCDEEISREAPFQVPIDFPEGFKVDTAEASAAVTWSTDNLSCISEPCLIQTGPEPEDIGVRYAVRVQGTITLLVSVSPVRNQYGQGDGAVSVIHTEEIDQVVYYAAQSGRCPDFSQITVEDLLIVPPFYGSPLTVAGTLVLPPSPDPQSYVFTANTGDSTVSVIDADLNTVVKTIPFSDVPTNLGVTFDKAFTYVLHGNTNLVSVIDNKTLTIINTITVGGGPRKIEFDPTDEFAYVMAAGSIYVINTASQSVIDVIPIPGALDFALDPNGQYVYTANGSSWSVDKYDVNTGQLVESIIDTFEFPSLITTPYAGNFAYVLNGELWPKGVTEISLSPLSRGGDFSRLFETLRTIVFSLDSTRAYFLEPYSEPFLINNLYVVNTARQRIIANVSLPGAFDLAVTPDKQYIYAAQPNDNAVTVYRTSDYTAVTVIPVGAGPSAIAMLEHHHHHH,not soluble
11,MKKPIEFYLSGDRVYSTREKAINQLYNNRGYGELKGDKLFLSLIEAAYLTEKGWIKVVDKDKELKFDDLMKLGKSRDEDFDIKYIVYKDLRDRGYIVKSALKFGSHYRVYRKDAEHSDWLIWVLRENQRLSPNDITARARVAHGVRKNMVLAIVDEDGDVVYYKVEWIKF,soluble
12,MKKPKHDLTHVRHDPAHCLAPGLFRSLKRGDRKRCKLDVTYTFGEDESMRFVGFEPLGADDMRLLQGIVALGGPNGILLTPEPTSETGRQLRLFLEPRFEAIEQDGLVVRESLTKLLSETGMTDSGDNIKALKASLLRMSNVTILVTKGRRQAAFHLMSHAFDETDGRLWVALNPRIAEAILGHRPYARIDMAEVRVLQTDPARLMHQRLCGWIDPGKSGRVELDTLCGYVWPDEANAEAMKKRRQTARKALAELAAVGWVVNEYAKGKWEIKRPGPTATAPVYRRNVPLLPS,not soluble
13,MKKQSCSHTTEDVPFPQANRRKFLQLAALGSSIGLFSVVSGISEARAEKKAGTLLLSCMDYRLMDEIERYMLRRGLYHNYDHIVLAGASLGAVTDKYPAWSRTFWDHLDLAVNLHEIHTVMVMDHRDCGAYKILLGEDYSKDTDRETAEHTIKLTQLKDMINKKYPKIEVETLLMGLNGEVEAIPTAVAKQG,not soluble
14,MKKSLDEHAERFSDHADAYDEDQDSAAYRACVNFVVDHAAPESDDVVLDLGTGTGAIAFALASDAAEIIGRDISDGMLEKAREKADGRGVENVSFGDGRFRAPNVDRPVDIVTSNFAMHHLGDDEKREAIDTIADLGPRRIVLGDVMLFGDDDPDAPFYSPEVDDPATVGVLADAFTDAGYALTAVEMVTEQAGVLVAERVKSDLEHHHHHH,soluble
15,MKKVAVLLAPGFEEAEAIVTLDILRRLHIDVETLACAESRAVVSYHDIPMVADSTLSERQQALFDAVVLPGGPQGSANLAANPAVIAFVARHDAAGKLICPICSAAARVLGAHGLLKGRRYVCSGDLWKAVPEGVYVDAPVVEDGNLISGKGLGHVFDFALTLSARLLGDDAPVREQAEHIYYPW,not soluble
16,MKKVITYGTFDLLHWGHIKLLERAKQLGDYLVVAISTDEFNLQKQKKAYHSYEHRKLILETIRYVDEVIPEKNWEQKKQDIIDHNIDVFVMGDDWEGKFDFLKDQCEVVYLPRTEGISTTKIKEEIAGL,soluble
17,MKKVLILGGGIAGVAAAIAFRKRGFEVEVVSDREFLFIYPIAIWIPVGTERFRNVAFPLEKVARKHGFSLTLDTVTAINASRDSVTLEKAGQRSDFDFLVIALGSDKMKHEGIEHTLSICGAPEHSIRLKEKIDALIERGHGKIAFGFGGNPKDPSAVRGGPGFELFFNLHHKLTKLGIRDNFEMTFFAPMAQPGAKMGQKALDMMAVMFKAKNFRQRYGKKITRFEVDGVVFEDGSKLESDLTMFIPAGSGHSVFRNSDLPLSEAGFVKIDDFCRVVGVDGWYAVGDSAALEGPEWKAKQGHIAEFMADCAANNCLAEHFGHQEPMRGYQEHLNVLCVMDTGDGAGFVYRTGHSEMFIPMPVVGHWLKKAWGYYYKLSKMKYIPRIPGMLEHHHHHH,soluble
18,MKKWFPALLFSLCVSGESSAWNNIVFYSLGDVNSYQGGNVVITQRPQFITSWRPGIATVTWNQCNGPEFADGFWAYYREYIAWVVFPKKVMTQNGYPLFIEVHNKGSWSEENTGDNDSYFFLKGYKWDERAFDAGNLCQKPGEITRLTEKFDDIIFKVALPADLPLGDYSVKIPYTSGMQRHFASYLGARFKIPYNVAKTLPRENEMLFLFKNIGGCRPSAQSLEIKHGDLSINSANNHYAAQTLSVSCDVPANIRFMLLRNTTPTYSHGKKFSVGLGHGWDSIVSVNGVDTGETTMRWYKAGTQNLTIGSRLYGESSKIQPGVLSGSATLLMILP,soluble
19,MKKYADDSLMLHTDLYQINMVETYWEDRMHERRAVFEVFFRKLPFGNGYAVFAGLERVIQFLQQFRFSDSDIDYLRQELGYRDDFLDYLRTLRFTGTVRSMREGEVVFANEPIMRIEAPLAEAQLIETAILNIINFQTLIATKASRIKHILGDEPALEFGSRRAQEMDAALWGARAAYIGGIEATSNVRAGKLFGIPVAGTHAHSMIQAYQDEYTAFLKYARRHKDCVFLVDTYDTLKSGVPNAIRVAKELGDQINFIGIRIDSGDLAYLSKEARKMLDEAGFPNAKIFASNDLDEDTILNLKSQGAKIDVWGIGTKLITAYDQPALGAVYKMVAIENERGEMVDTIKISGNPEKVTTPGLKRVYRIVNKINHKAEGDYIALESENPQQEERLKMFHPVYTFISKFVTNFEARDLHVTIFDNGRLVYTSPPLPDIQAYAKESLRLFWEEYKRTLNPEQYPVDLSQACWDNKMENIRKVKEKIAGASLSE,not soluble
20,MKLFQPSEIVTSLPTQFFASLVAKVNKVVAAGHDVINLGQGNPDQPTPQHIVKALQDAAEKTIHHKYPPFRGHESLKEAVATFYQREYDVVVNPKTEVAILFGGKAGLVELPVCFTNPGDTILVPDPGYPDYLSGVALAKAQFETMPLIAENNFLPDYTKIDDSIAERAKLMFLNYPNNPTGATASKDFFDETIHFANKHNILVVHDFAYGAIGFDGQKPVSFLQADGAKDTGIEIYTLSKTFNMAGWRIAFAVGNESVIETINLLQDHMYVSIFGAIQDAAREALLSSQSCVIDLVNSYESRRNALISACHSIGWNVDIPTGSFFAWLPVPEGYTSEQFSDILLEKAHVAVAPGVGFGEHGEGYVRVGLLHTEDRLREAINRIDKLNFFKK,not soluble
21,MKLLLLAVCVIGFVACYEVVPRASALRPRGDVRRSPLPSLSAYAPFAKSLRPASTGIRRAPAVVTLPAQKANRSVKRAPAKPLPMTLPLLPPLLPLPQFIPVPVPVLSAEGLPTLPTLAPHTFPTFTPIPGMPTMPALTMPPSFQRLLGITTTTMKPAEKAMETVQTEESDNDTTSEARAHSAPTYSKDLNTIRSRLSKFVRGSEKKVTKAEDNADWIVPFH,not soluble
22,MKLNDPLVESFEFRGEIYPIDLSFNKVLDVFDVIDDDFLNEAEKCFLCLDILLDRTDLPFTYAVDLWVYIKTNFIDAERPEKPQLDIKGNPMPVVKEKEDNKKVIDLSLDAEFIYASFRQAYQINLLKEQNRLSWIEFKALLNALPDDTVMQRIIAIRQWEDDGEGSKKYRDNMRKLKAKYSLDEREEEDDGS,not soluble
